# Assay results published in patent US20140348805A1.
# Molecular target: HLA-A2 (HLA-A*0201) presenting tyrosinase369-377 peptide … on cells (human)
# Assay: cell-based or functional assay
Substance,IFN-γ secretion after co-culture with Mel-93.04A12 (HLA-A2+tyrosinase+) [pg/mL],"peptide concentration needed for 50% relative lysis (half-maximum lysis), 51Cr-release assay, peptide-pulsed T2 cells [pM]","specific lysis of melanoma cells, 51Cr-release assay [%]","amount of peptide presented by T2 cells to cause release of 2000 pg/ml interferon-gamma, fold lower than TCR-D115 [fold]",maximum level of interferon-gamma in 24 hours (T2 cells pulsed with YMD peptide) [pg/mL],"peptide amount at first detection of cytokine secretion, fold less than TCR-D115 (PBMC pulsed with YMD peptide) [fold]","peptide concentration for 50% of maximal interferon-gamma release, fold lower than TCR-D115 (T2 cells pulsed with YMD peptide) [fold]"
"TCR of T cell clone T58 (TCR-T58), human constant regions (from UniProt P01848 1-140)",1230,600,76,–,–,–,–
"TCR-T58 with murine constant regions (TCRbeta-P2A-TCRalpha, codon-optimized) (from UniProt P01849 1-136)",–,–,–,15000,5000,1000,100
